# Laboratory results published in patent publication US10500249B2, “Compositions and methods for preventing or treating diseases, conditions, or processes characterized by aberrant fibroblast proliferation and extracellular matrix deposition” (MOERAE MATRIX, INC., priority 2014, dated 2019).
# Legend:
# Experiment in all cases: Kinase Profiling Assay
# Type in all cases: biochemical
# Conditions in all cases: 100 μM
# [1] = biological target: T1, MKK6 (h) (Homo sapiens, UniProt P52564)
# T1 construct: purchased Millipore
# T1 sequence (P52564 1-334): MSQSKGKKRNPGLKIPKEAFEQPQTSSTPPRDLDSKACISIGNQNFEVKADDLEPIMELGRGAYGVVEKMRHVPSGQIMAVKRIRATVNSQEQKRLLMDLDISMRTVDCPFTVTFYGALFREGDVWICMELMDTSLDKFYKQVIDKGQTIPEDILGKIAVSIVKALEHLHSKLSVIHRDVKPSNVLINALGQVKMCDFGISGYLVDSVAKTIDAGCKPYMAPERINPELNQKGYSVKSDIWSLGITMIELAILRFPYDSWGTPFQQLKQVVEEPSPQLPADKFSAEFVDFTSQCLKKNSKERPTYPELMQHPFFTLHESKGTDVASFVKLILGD
# Summary of the method: (§1)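 Kinase inhibition by MK2 inhibitory peptides was profiled radiometrically, with substrate phosphorylation from labeled ATP read by scintillation after capture on a charged filter. Values are relative to 100% activity and measured in duplicate.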
# [2] = biological target: ALK (h) (Homo sapiens, UniProt Q9UM73)
# Summary of the method: as §1
# [3] = biological target: LOK (h) (Homo sapiens, UniProt O94804)
# Summary of the method: as §1
# [4] = biological target: T2, cSRC (h) (Homo sapiens, UniProt P12931)
# T2 construct: purchased Millipore
# Summary of the method: as §1
# [5] = biological target: T3, PAK2 (h) (Homo sapiens, UniProt Q13177)
# T3 construct: purchased Millipore
# Summary of the method: as §1
# [6] = biological target: T4, EGFR(T790M, L858R) (h) (Homo sapiens, UniProt P00533, L858R/T790M)
# T4 construct: purchased Millipore
# Summary of the method: as §1
# [7] = biological target: T5, Haspin (h) (Homo sapiens, UniProt Q8TF76)
# T5 construct: purchased Millipore
# T5 sequence (Q8TF76 1-798): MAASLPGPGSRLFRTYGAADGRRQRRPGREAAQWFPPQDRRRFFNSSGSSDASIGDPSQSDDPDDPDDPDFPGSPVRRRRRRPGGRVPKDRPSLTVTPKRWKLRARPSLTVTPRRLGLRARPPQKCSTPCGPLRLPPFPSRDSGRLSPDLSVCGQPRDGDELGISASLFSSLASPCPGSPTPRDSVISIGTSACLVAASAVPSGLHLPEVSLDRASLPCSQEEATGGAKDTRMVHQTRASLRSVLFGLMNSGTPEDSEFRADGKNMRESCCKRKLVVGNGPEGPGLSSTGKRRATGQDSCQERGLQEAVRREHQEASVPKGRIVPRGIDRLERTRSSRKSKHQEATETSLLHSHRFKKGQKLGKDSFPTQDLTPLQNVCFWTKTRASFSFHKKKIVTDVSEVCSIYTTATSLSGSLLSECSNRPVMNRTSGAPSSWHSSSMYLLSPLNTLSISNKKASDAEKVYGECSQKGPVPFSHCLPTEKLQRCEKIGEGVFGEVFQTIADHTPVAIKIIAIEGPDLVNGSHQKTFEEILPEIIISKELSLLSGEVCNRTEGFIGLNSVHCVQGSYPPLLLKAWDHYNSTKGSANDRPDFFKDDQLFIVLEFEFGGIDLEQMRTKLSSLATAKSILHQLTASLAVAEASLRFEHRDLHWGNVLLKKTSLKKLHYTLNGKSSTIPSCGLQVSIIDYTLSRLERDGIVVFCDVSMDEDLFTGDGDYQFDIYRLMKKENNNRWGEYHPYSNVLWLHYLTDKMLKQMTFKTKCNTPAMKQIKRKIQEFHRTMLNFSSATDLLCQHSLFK
# Summary of the method: as §1
# [8] = biological target: Met (h) (Homo sapiens, UniProt P08581)
# Summary of the method: as §1
# [9] = biological target: T6, PKCτ (h) (Homo sapiens, UniProt P41743)
# T6 sequence (P41743 1-596): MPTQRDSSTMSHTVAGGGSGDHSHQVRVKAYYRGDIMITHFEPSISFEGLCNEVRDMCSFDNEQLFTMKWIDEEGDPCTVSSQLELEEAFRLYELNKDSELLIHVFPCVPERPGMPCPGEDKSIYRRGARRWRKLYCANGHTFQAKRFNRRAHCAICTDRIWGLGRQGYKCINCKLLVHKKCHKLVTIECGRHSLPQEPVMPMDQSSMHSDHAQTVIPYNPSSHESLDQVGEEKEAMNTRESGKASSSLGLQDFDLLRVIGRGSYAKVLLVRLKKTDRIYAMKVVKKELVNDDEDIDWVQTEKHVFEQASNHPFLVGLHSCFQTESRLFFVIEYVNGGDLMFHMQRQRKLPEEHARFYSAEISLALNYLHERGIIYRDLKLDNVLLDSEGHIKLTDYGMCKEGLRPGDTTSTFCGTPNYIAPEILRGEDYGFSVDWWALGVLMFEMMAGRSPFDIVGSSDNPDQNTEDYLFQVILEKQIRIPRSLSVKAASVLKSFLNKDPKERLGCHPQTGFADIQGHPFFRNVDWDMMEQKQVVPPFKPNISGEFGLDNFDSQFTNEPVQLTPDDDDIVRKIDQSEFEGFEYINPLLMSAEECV
# Summary of the method: as §1
# [10] = biological target: T7, p70S6K (h) (Homo sapiens, UniProt P23443)
# T7 construct: purchased Millipore
# Summary of the method: as §1
# [11] = biological target: Ron (h) (Homo sapiens, UniProt Q04912)
# Summary of the method: as §1
# [12] = biological target: T8, PKCγ (h) (Homo sapiens, UniProt P05129)
# T8 construct: purchased Millipore
# Summary of the method: as §1
# [13] = biological target: FAK (h) (Homo sapiens, UniProt Q05397)
# Summary of the method: as §1
# Chain of FAK (h) (Q05397 whole entry): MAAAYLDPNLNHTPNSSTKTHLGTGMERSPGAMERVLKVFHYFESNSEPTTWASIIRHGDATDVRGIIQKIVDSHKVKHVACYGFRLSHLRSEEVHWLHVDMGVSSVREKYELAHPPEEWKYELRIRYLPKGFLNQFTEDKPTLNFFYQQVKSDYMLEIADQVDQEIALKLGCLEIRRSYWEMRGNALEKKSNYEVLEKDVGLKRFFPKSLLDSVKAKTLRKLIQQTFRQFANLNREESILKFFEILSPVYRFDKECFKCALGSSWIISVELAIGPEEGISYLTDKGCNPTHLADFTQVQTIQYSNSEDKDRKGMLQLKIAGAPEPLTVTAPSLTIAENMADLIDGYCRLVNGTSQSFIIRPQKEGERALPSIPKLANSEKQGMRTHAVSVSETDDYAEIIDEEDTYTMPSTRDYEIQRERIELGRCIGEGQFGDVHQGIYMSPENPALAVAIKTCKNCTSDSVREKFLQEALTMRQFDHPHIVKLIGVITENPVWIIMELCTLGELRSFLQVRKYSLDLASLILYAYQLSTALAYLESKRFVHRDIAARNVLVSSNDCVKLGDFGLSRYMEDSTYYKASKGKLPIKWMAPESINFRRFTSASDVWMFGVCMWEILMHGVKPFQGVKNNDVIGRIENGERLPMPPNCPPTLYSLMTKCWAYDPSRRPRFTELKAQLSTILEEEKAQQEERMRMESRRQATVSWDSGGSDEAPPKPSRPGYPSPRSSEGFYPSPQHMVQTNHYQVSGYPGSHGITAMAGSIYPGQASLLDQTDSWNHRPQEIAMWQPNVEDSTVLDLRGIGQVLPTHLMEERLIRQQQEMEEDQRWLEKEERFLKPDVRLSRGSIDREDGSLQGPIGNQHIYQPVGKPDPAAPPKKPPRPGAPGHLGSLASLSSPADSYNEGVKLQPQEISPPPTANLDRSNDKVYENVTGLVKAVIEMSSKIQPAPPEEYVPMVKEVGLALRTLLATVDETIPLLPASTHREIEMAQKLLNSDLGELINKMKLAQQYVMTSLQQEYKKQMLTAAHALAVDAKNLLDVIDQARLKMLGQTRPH
# T3 sequence (Q13177 whole entry): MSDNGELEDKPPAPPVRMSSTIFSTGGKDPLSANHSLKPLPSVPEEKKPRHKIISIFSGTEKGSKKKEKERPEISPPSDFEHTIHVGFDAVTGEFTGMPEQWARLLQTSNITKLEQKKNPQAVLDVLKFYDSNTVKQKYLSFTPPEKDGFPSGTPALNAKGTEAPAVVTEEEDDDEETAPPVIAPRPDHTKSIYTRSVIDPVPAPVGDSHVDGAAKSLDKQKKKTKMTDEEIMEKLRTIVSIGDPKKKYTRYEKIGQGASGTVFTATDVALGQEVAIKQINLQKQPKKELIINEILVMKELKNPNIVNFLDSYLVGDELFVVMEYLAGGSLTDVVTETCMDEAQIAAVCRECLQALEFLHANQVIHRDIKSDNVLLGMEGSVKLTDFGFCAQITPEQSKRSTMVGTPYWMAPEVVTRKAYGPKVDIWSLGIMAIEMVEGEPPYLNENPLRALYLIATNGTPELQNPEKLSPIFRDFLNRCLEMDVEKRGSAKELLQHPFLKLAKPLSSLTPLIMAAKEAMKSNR
# Chain of ALK (h) (Q9UM73 19-1620): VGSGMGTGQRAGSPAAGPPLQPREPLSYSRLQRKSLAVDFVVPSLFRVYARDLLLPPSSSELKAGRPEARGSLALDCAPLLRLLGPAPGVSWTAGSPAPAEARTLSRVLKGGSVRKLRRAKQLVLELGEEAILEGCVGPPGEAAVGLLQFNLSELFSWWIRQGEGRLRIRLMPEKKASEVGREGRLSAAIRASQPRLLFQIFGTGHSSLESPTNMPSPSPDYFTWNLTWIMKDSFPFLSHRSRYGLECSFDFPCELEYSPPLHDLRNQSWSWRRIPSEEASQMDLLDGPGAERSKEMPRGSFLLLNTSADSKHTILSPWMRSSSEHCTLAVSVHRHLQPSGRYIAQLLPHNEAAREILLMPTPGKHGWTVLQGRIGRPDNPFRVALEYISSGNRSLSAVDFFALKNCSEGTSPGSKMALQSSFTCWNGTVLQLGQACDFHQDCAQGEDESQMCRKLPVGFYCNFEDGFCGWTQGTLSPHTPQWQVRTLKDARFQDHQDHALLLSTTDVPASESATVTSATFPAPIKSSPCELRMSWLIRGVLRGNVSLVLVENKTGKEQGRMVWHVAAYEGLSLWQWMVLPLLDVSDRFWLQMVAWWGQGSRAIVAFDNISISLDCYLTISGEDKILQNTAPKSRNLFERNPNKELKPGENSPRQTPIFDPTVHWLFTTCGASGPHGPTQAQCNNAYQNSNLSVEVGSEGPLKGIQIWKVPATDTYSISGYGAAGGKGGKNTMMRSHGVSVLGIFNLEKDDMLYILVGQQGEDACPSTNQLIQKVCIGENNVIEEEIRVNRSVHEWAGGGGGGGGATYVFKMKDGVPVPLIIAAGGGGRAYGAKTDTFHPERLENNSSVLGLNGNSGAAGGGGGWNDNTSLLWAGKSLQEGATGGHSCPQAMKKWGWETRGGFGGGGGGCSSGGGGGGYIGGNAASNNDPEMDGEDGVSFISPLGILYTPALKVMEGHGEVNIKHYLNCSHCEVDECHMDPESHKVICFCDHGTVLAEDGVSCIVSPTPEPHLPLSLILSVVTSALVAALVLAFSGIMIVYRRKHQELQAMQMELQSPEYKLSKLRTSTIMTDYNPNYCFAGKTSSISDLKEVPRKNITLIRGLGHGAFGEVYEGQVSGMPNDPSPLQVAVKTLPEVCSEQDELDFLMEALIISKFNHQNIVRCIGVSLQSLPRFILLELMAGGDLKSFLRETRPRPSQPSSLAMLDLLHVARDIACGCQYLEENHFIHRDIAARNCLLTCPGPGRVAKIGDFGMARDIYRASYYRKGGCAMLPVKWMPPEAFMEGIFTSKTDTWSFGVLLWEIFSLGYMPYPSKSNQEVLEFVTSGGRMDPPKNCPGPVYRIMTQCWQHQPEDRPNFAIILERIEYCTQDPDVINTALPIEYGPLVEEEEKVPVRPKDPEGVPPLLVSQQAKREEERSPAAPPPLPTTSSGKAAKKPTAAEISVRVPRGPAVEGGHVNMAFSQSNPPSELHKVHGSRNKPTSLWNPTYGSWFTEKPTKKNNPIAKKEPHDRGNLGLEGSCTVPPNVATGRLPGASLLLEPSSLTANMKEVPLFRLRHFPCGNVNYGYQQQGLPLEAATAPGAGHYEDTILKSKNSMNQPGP
# T7 sequence (P23443 whole entry): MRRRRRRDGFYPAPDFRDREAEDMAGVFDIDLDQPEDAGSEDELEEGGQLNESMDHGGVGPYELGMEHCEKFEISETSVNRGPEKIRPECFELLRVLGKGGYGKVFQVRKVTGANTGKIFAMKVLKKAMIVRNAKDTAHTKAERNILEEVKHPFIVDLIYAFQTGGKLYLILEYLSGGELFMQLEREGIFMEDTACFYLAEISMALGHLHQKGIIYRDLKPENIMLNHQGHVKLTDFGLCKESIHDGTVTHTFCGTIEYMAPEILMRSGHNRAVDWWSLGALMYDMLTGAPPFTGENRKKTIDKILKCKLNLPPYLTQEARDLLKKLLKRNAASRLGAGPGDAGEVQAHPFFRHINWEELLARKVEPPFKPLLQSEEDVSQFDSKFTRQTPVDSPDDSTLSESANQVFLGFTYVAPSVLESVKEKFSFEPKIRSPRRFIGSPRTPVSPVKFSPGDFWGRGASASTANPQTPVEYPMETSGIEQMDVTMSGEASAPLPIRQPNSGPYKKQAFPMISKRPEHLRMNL
Sequence,% activity [1],% activity [2],% activity [3],% activity [4],% activity [5],% activity [6],% activity [7],% activity [8],% activity [9],% activity [10],% activity [11],% activity [12],% activity [13]
FAKLAARLYRKALARQLGVAA [MMI-0300],48%,19%,37%,26%,65%,85%,48%,65%,68%,35%,93%,89%,–
HRRIKAWLKKIKALARQLGVAA (Mammalian) [MMI-0500],18%,12%,7%,30%,44%,53%,25%,27%,7%,3%,46%,6%,94%
KAFAKLAARLYRKALARQLGVAA [MMI-0400],44%,16%,18%,14%,59%,78%,36%,62%,46%,33%,79%,79%,96%
YARAAARQARAKALNRQLGVA (Mammalian) [MMI-0200],98%,95%,67%,32%,69%,108%,71%,71%,97%,84%,120%,101%,110%
